{
  "source": "paper PMC10844294",
  "about": "“A monoclonal antibody targeting a large surface of the receptor binding motif shows pan-neutralizing SARS-CoV-2 activity” (Nature Communications, 2024)",
  "binders": {"B1": {"name": "17T2 Fab fragment (Fab, V domains shown)", "VH": "QVQLVQSGPEVKKPGTSVKVSCKAPVFTFSISAVQWVRQARGQRLEWIGWIVVGSGNTNYAQNFQERVTITTDMSTGTVYMELSGLRSEDTAMYYCAAPYCNRTTCYDGFDLWGQGTMVTVSS", "VL": "EIVLTQSPGTLSLSPGERATLSCRASQSISSNYLAWYQQKPGQAPRLLIYGASSRATGIPDRFSGSGSGTDFTLSINRLEPEDFAMYYCQHYGGLSRWTFGQGTKVEIK", "notes": "also called Fab 17T2"}},
  "target": "T1, B.1.1.529 (BA.1) S1 + S2 trimer-His Recombinant Protein (SARS-CoV-2 Omicron BA.1 (B.1.1.529), strain)",
  "T1 construct": "also called Omicron BA.1 trimeric spike; BA.1 spike",
  "assay": "cryo-EM structure",
  "conditions": "both partners purified",
  "data": [
    {"binder": "B1", "values": [
      {"measurement": "stoichiometry N", "value": 3, "unit": "Fab per spike trimer"}
    ]}
  ]
}
